This experiment addresses T1, complement factor H (human, UniProt P08603 19-1231, 125I-labelled (Iodobeads) in the blot and bacterial binding assays).
T1 construct: also called fH; FH
In words: SPR (Biacore), GST:Hic39-261 captured on anti-GST antibody chip, fH as analyte, Langmuir 1:1 model, mean ± SD of three experiments.

T1 sequence (P08603 19-1231 limits assumed): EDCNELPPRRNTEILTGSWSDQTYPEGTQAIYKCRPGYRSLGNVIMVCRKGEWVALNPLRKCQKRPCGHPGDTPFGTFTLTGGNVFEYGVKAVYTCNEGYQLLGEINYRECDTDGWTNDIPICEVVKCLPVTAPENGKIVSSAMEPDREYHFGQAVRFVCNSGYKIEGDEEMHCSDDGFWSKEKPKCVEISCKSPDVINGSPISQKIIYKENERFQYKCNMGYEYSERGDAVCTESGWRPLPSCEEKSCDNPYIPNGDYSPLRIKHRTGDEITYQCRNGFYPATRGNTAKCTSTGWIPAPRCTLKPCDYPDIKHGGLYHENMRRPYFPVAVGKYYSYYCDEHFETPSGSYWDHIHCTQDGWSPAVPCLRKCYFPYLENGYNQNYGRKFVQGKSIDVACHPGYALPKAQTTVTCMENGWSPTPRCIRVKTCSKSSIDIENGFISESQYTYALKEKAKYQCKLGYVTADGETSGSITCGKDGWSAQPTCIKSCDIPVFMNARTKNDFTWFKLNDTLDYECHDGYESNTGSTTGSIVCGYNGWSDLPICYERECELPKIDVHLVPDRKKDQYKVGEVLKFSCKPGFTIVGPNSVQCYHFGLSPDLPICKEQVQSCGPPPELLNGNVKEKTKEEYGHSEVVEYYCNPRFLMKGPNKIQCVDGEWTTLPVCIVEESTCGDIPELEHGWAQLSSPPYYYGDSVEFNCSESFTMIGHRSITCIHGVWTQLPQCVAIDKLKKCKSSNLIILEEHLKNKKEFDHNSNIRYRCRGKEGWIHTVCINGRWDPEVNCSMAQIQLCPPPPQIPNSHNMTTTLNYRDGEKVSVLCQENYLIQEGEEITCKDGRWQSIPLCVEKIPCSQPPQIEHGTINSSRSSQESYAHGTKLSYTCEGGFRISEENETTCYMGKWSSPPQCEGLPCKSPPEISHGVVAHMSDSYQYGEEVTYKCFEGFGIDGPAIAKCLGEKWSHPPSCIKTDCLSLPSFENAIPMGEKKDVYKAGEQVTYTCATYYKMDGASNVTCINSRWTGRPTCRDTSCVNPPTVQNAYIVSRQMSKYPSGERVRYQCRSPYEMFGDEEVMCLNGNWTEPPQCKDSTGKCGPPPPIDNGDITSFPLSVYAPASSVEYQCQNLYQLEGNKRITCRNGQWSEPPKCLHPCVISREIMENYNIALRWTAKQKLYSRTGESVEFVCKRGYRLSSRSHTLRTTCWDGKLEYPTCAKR

B1: GST:Hic^39-261 fusion protein (other)
chain: EKEVTTQVATSSNKANKSQTEHMKAAKQVDEYIEKMLSEIQLDRRKHTQNVGLLTKLGAIKTEYLRGLSVSKEKSTAELPSEIKEKLTAAFEQFKKDTLKSGKKVAEAQKKAKDQKEAKQEIEALIVKHKGREIDLDRKKAKAAVTEHLKKLLNDIEKNLKKEQHTHTVELIKNLKDIEKTYLHKLDESTQKAQLQKLIAESQSKLDEAFSKFKNGLSSSSNS
notes: main band 54 kDa, partly degraded; Vector-derived residues after the EcoRI site, if any, are not described; also called fusion between GST and the NH2-terminal Hic region; not shown: glutathione S-transferase (GST) encoded by vector pGEX-5X-3 (Pharmacia Biotech); vector-encoded residues between GST and the BamHI cloning site of pGEX-5X-3
The term Kd denotes a measure of binding affinity in units of concentration. A high value points to weaker binding. The term koff denotes the rate constant with which the complex falls apart. Low readings indicate slow dissociation, high ones fast dissociation. What is called kon is the second-order rate constant of association. In the case of B1, the Ka turned out to be 5e+07 M⁻¹, the Kd was found to be 23 nM, the koff amounted to 0.00061 s⁻¹ and the kon was 28000 M⁻¹ s⁻¹.

(Values after patent publication US20040091495A1 (published 2004).)
